Reference: IntAct's records for PubMed 32172343

B1: Phospholipid-transporting ATPase VB (Homo sapiens), O94823-1 (parent)
chain: MALSVDSSWHRWQWRVRDGFPHCPSETTPLLSPEKGRQSYNLTQQRVVFPNNSIFHQDWEEVSRRYPGNRTCTTKYTLFTFLPRNLFEQFHRWANLYFLFLVILNWMPSMEVFHREITMLPLAIVLFVIMIKDGMEDFKRHRFDKAINCSNIRIYERKEQTYVQKCWKDVRVGDFIQMKCNEIVPADILLLFSSDPNGICHLETASLDGETNLKQRCVVKGFSQQEVQFEPELFHNTIVCEKPNNHLNKFKGYMEHPDQTRTGFGCESLLLRGCTIRNTEMAVGIVIYAGHETKAMLNNSGPRYKRSKIERRMNIDIFFCIGILILMCLIGAVGHSIWNGTFEEHPPFDVPDANGSFLPSALGGFYMFLTMIILLQVLIPISLYVSIELVKLGQVFFLSNDLDLYDEETDLSIQCRALNIAEDLGQIQYIFSDKTGTLTENKMVFRRCTIMGSEYSHQENAKRLETPKELDSDGEEWTQYQCLSFSARWAQDPATMRSQKGAQPLRRSQSARVPIQGHYRQRSMGHRESSQPPVAFSSSIEKDVTPDKNLLTKVRDAALWLETLSDSRPAKASLSTTSSIADFFLALTICNSVMVSTTTEPRQRVTIKPSSKALGTSLEKIQQLFQKLKLLSLSQSFSSTAPSDTDLGESLGANVATTDSDERDDASVCSGGDSTDDGGYRSSMWDQGDILESGSGTSLEEALEAPATDLARPEFCYEAESPDEAALVHAAHAYSFTLVSRTPEQVTVRLPQGTCLTFSLLCTLGFDSVRKRMSVVVRHPLTGEIVVYTKGADSVIMDLLEDPACVPDINMEKKLRKIRARTQKHLDLYARDGLRTLCIAKKVVSEEDFRRWASFRREAEASLDNRDELLMETAQHLENQLTLLGATGIEDRLQEGVPDTIATLREAGIQLWVLTGDKQETAVNIAHSCRLLNQTDTVYTINTENQETCESILNCALEELKQFRELQKPDRKLFGFRLPSKTPSITSEAVVPEAGLVIDGKTLNAIFQGKLEKKFLELTQYCRSVLCCRSTPLQKSMIVKLVRDKLRVMTLSIGDGANDVSMIQAADIGIGISGQEGMQAVMSSDFAITRFKHLKKLLLVHGHWCYSRLARMVVYYLYKNVCYVNLLFWYQFFCGFSSSTMIDYWQMIFFNLFFTSLPPLVFGVLDKDISAETLLALPELYKSGQNSECYNLSTFWISMVDAFYQSLICFFIPYLAYKGSDIDVFTFGTPINTISLTTILLHQAMEMKTWTIFHGVVLLGSFLMYFLVSLLYNATCVICNSPTNPYWVMEGQLSNPTFYLVCFLTPVVALLPRYFFLSLQGTCGKSLISKAQKIDKLPPDKRNLEIQSWRSRQRPAPVPEVARPTHHPVSSITGQDFSASTPKSSNPPKRKHVEESVLHEQRCGTECMRDDSCSGDSSAQLSSGEHLLGPNRIMAYSRGQTDMCRCSKRSSHRRSQSSLTI
partner: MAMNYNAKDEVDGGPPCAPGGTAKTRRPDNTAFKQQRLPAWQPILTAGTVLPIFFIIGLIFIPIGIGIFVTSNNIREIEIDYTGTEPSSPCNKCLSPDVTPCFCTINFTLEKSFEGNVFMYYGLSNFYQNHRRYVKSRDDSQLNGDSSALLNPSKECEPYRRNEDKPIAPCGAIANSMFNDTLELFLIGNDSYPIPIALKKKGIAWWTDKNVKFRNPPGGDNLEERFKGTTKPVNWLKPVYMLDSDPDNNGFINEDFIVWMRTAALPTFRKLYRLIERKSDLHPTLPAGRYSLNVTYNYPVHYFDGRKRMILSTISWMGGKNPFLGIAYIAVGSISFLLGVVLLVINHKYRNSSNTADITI

Variants of: B1
Conditions: with TMEM30A

Effect of a mutation on the interaction, with no effect:
I1038T
E210A
G671R;N865K
V48L
E993A
